Laboratory results from patent US20220227866A1 (VELOSBIO, published 2022).
Where “and” joins values, the source holds several entries; their conditions need not be identical. Identical values can stand only once. Values belong to the binder of their own block, whether it stands above or below them.

Key:
human ROR1 on cells [1] = molecular target: T1, human ROR1 on cells (human, UniProt Q01973 30-937); assay: cell-based or functional assay
[2] = molecular target: T2, recombinant human ROR1 extracellular domain (human, UniProt Q01973 30-406); assay: ELISA, immobilised ROR1 ECD, construct titrated
T2 construct: Bought (Acro Biosystems cat. R01-H522Y); whole entry named; also called ROR1-ECD; immobilized ROR1
T2 sequence (Q01973 30-406 limits assumed): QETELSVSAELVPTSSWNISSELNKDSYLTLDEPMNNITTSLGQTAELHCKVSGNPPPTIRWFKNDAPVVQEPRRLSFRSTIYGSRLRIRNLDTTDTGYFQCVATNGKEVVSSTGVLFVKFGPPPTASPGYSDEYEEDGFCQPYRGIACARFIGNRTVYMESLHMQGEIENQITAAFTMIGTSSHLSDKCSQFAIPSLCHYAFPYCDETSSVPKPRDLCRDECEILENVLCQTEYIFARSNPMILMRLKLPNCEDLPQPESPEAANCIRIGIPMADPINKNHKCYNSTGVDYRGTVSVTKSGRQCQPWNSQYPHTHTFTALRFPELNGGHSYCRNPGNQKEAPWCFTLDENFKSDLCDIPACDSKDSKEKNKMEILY
Experimental: A 96-well Costar-3366 plate was coated with 50 μL/well of 2 μg/mL […] (Acro Biosystems cat. #R01-H522Y) in PBS overnight at 4° C. The plate was rinsed once with PBS containing 0.05% Tween 20 (PBS-T) and blocked with 100 μL/well of 5% non-fat milk in PBS (5% M-P) for 1 h at 25° C. Antibody samples were serially diluted 2-fold using 5% M-P and were incubated for 1 h at 25° C. (50 μL/well). The plate was washed three times with PBS-T and 50 μL/well anti-human kappa, HRP conjugate (Southern Biotech cat. #2060-05) diluted 10,000-fold in 5% M-P was added for 1 h at 25° C. The plate was washed three times with PBS-T, developed with 50 μL/well 1-Step Ultra TMB-ELISA (Thermo Scientific cat. #34028). The reaction was terminated by the addition of 2 N H₂SO₄ and the A450 was determined using a Spectramax plate reader.
Next, the binding of bispecific binding molecules to ROR was characterized by ELISA using recombinantly-expressed extracellular domain of RORL. ROR was immobilized on a microtiter plate, the bispecific binding molecules were titrated, and binding was quantitated with an anti-human kappa-HRP reagent. Consistent with the cell binding data, all constructs bound ROR1 in a concentration-dependent manner (FIG. 6). Moreover, monovalent ROR1 constructs 13-15 bound less tightly than all but two of the bivalent constructs.

[3] = molecular target: T3, soluble biotinylated human ROR1 extracellular domain (human, UniProt Q01973 30-406, biotinylated with EZ-Link Sulfo-NHS-LC-Biotin at a 1:5 molar ratio); assay: ELISA, captured construct, biotinylated ROR1 titrated
T3 construct: Acro Biosystems cat; whole entry named; also called b-ROR1; soluble b-ROR1
T3 sequence (Q01973 30-406 limits assumed): as above
Experimental: To measure the binding of bispecific constructs to soluble ROR1, a 96-well Costar-3366 plate was coated with 50 μL/well of 2 μg/mL goat anti-human kappa (Southern Biotech cat. #2060-01) in PBS overnight at 4° C. The plate was rinsed once with PBS-T, blocked with 100 μL/well 5% M-P for 1 h at 25° C., rinsed once with PBS-T, and 2 μg/mL of the bispecific binding molecule was added and incubated for 1 h at 25° C. The plate was washed three times with PBS-T. Biotinylated ROR1 was diluted serially, 3-fold in 5% M-P and was incubated for 1 h at 25° C. (50 μL/well). The plate was washed three times with PBS-T. To detect the binding of b-ROR1, 50 μL/well Neutravidin-HRP (Pierce cat. #31030) diluted 1:5000 in 1% BSA-PBS was added for 1 h at 25° C. The plate was washed three times with PBS-T, then developed with 50 μL/well 1-Step Ultra TMB-ELISA (Thermo Scientific cat. #34028). The reaction was terminated by the addition of 2 N H₂SO₄ and the A450 was determined using a Spectramax plate reader.
The stronger binding observed with bivalent constructs versus monovalent constructs in cell assays and ELISAs in which the antigen is immobilized is consistent with an avidity effect. To determine if this was the case, binding to soluble monomeric ROR1 was assessed by immobilizing the bispecific binding molecules on a microtiter plate coated with goat anti-human kappa antibody and titrating biotinylated RORL. All bispecific binding molecules were active in this format (FIG. 7), and in most cases, there were no notable differences between monovalent and bivalent constructs.

[4] = molecular target: T4, human CD3 on Jurkat cells (human, UniProt P09693 23-182; P04234 22-171; P07766 23-207); assay: flow cytometry on Jurkat cells
T4 construct: GenBank NP_000064.1, NP_000723.1, NP_000724.1
T4 sequence (P09693 23-182 limits assumed, chain 1 of 3): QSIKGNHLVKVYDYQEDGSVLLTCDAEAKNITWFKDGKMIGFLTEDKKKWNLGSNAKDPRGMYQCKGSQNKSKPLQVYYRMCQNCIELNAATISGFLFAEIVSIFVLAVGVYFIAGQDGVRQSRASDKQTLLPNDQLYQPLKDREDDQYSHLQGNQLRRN
T4 sequence (P04234 22-171 limits assumed, chain 2 of 3): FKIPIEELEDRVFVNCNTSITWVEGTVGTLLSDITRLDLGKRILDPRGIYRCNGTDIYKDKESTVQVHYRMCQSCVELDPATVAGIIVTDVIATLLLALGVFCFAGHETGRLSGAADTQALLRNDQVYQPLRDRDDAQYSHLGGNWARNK
T4 sequence (P07766 23-207 limits assumed, chain 3 of 3): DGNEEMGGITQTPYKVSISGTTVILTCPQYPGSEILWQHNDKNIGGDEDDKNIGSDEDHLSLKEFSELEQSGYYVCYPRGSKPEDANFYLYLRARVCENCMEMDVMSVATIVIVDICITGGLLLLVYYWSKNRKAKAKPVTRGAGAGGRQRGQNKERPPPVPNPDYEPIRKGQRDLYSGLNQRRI
Experimental: (§1) To quantitate CD3 binding, 2.5E5 Jurkat cells were used for each condition. A 2× stock of the cells was made by resuspending the cells to 5E6/mL by placing in 50 μL of PBS with 2% FBS. Next, the cells were diluted with an equal volume of 2× stock of the test bispecific binding molecule. The cells and antibody were co-incubated on ice for 20 min. The cells were then washed 3 times with 300 μL of FACS buffer and were resuspended in 100 μL of goat anti-human Fc-PE conjugate antibody (Invitrogen cat. #12499882) at 1:500 dilution and incubated on ice with reduced light for 20 min. The cells were then washed 3 times with 300 μL of FACS buffer and fixed with 2% paraformaldehyde for 10 min at 25° C. The cells were washed 2 times with 300 μL of FACS buffer and analyzed on a Miltenyi MACSQuant Analyzer.

human ROR1 on cells [5] = molecular target: T1, human ROR1 on cells; assay: flow cytometry on ROR1-transfected MEC cells after 24 h incubation with the construct
human ROR1 on cells [6] = molecular target: T1, human ROR1 on cells; assay: flow cytometry on JeKo-1 cells
Experimental: ROR1 binding was quantitated using both ROR1-transfected MEC cells and JeKo-1 cells. For each condition, 2.5E5 cells were used. The cells were placed in 50 μL of PBS with 2% FBS. Next, the cells were diluted with an equal volume of 2× stock of the test bispecific binding molecule. The cells and antibody were co-incubated on ice for 20 min. The cells were then washed 3 times with 300 μL of FACS buffer and were resuspended in 100 μL of anti-human Fc-PE conjugate antibody (Invitrogen cat. #12499882) and incubated on ice with reduced light for 20 min. Subsequently, the cells were washed 3 times with 300 μL of FACS buffer and fixed with 2% paraformaldehyde for 10 min at 25° C. The cells then were washed 2 times with 300 μL of FACS buffer and analyzed on a Miltenyi MACSQuant Analyzer.
The influence of ROR expression levels on binding of the bispecific constructs was assessed by flow cytometry using JeKo-1 cells. JeKo-1 cells express lower levels of ROR (˜13,000 copies/cell) than the ROR1-transfected MEC cells (˜56,000 copies/cell). All constructs bound JeKo-1 cells (FIG. 5). […] Specifically, monovalent ROR1 constructs generally bound more weakly than the bivalent constructs (FIG. 5, Panel A, compare constructs 14 and 15 with other constructs; FIG. 5, Panel C, compare constructs 15-17 with other constructs).

[7] = molecular target: T4, human CD3 on Jurkat cells; assay: flow cytometry on Jurkat cells (1 ug/mL construct on ice, washed, then 37 C)
Experimental: as §1
To quantitate internalization of the bispecific binding molecules, 2.5E5 Jurkat cells were co-incubated with 1 μg/mL of the bispecific binding molecule on ice for 20 min. The cells were then washed 3 times 300 μL with ice-cold FACS buffer and were resuspended in culture media and incubated at 37° C. At various times, cells were removed, washed with 300 μL ice-cold FACS buffer and processed as described above.

[8] = molecular target: T2, recombinant human ROR1 extracellular …; assay: ELISA, Fab titrated on immobilized human ROR1

T1 sequence (Q01973 30-937 limits assumed): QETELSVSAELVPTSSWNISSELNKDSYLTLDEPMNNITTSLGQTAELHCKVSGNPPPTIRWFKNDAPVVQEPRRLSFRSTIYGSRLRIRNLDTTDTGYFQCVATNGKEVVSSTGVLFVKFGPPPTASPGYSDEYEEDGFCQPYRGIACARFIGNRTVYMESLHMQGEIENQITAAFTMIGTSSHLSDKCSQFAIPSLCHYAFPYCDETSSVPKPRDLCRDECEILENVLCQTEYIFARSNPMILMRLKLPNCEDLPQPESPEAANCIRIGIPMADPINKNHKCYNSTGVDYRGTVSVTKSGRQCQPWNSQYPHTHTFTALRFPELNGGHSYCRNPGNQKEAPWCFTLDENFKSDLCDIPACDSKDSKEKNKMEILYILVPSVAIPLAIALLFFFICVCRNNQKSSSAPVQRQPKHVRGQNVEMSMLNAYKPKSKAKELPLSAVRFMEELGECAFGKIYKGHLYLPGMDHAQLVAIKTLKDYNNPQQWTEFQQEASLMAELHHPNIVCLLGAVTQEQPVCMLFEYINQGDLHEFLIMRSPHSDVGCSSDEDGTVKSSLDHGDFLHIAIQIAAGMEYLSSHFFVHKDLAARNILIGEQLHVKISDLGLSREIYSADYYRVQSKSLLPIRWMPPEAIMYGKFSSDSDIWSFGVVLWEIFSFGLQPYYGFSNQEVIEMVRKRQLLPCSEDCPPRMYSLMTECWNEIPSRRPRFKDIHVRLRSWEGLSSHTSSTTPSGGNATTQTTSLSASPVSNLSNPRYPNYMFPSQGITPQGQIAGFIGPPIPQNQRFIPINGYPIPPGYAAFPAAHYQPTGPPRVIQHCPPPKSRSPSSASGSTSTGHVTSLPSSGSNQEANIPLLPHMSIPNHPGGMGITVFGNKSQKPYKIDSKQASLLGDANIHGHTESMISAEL

EC50, LDH release, ROR1-transfected MEC (human ROR1 on cells [1]): 11 ng/mL and 55 pM | Max. LDH Release, ROR1-transfected MEC (human ROR1 on cells [1]): 42% | Kd [2]: 0.2 nM | Kd [3]: 0.193 nM | binding result [4]: binds | EC50 (read off the curve) (human ROR1 on cells [5]): ~3 ng/mL
B1: Bispecific construct 1 (bispecific antibody, human IgG1, kappa)
heavy: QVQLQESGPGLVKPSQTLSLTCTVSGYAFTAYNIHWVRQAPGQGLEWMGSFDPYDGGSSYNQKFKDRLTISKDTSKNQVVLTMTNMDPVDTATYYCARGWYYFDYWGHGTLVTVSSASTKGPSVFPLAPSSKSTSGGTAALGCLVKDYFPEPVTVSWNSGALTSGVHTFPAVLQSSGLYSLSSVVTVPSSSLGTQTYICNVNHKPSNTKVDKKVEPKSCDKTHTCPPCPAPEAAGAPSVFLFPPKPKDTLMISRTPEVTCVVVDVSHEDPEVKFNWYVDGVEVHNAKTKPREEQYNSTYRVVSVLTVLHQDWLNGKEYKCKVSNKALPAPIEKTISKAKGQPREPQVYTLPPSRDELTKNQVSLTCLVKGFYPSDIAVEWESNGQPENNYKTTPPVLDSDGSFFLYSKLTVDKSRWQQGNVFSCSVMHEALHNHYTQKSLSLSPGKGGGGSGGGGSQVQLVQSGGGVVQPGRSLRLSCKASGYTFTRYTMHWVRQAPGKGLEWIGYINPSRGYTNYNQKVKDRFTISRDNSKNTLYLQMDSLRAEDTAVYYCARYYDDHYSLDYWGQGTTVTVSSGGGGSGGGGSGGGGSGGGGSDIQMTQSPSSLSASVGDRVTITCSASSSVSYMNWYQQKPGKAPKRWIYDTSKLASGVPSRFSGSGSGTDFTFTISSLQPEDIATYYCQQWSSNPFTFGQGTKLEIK
light: DIVMTQTPLSLPVTPGEPASISCRASKSISKYLAWYQQKPGQAPRLLIYSGSTLQSGIPPRFSGSGYGTDFTLTINNIESEDAAYYFCQQHDESPYTFGEGTKVEIKRTVAAPSVFIFPPSDEQLKSGTASVVCLLNNFYPREAKVQWKVDNALQSGNSQESVTEQDSKDSTYSLSSTLTLSKADYEKHKVYACEVTHQGLSSPVTKSFNRGEC
notes: ROR1 arm Ab1; CD3 valency 2, ROR1 valency 2

EC50 (read off the curve) (human ROR1 on cells [6]): ~20 ng/mL | binding result [7]: binds | EC50, LDH release, ROR1-transfected MEC (human ROR1 on cells [1]): 5 ng/mL and 25 pM | Max. LDH Release, ROR1-transfected MEC (human ROR1 on cells [1]): 50% | Kd [2]: 0.041 nM | Kd [3]: 0.129 nM
B2: Bispecific construct 2 (bispecific antibody, human IgG1, kappa)
heavy: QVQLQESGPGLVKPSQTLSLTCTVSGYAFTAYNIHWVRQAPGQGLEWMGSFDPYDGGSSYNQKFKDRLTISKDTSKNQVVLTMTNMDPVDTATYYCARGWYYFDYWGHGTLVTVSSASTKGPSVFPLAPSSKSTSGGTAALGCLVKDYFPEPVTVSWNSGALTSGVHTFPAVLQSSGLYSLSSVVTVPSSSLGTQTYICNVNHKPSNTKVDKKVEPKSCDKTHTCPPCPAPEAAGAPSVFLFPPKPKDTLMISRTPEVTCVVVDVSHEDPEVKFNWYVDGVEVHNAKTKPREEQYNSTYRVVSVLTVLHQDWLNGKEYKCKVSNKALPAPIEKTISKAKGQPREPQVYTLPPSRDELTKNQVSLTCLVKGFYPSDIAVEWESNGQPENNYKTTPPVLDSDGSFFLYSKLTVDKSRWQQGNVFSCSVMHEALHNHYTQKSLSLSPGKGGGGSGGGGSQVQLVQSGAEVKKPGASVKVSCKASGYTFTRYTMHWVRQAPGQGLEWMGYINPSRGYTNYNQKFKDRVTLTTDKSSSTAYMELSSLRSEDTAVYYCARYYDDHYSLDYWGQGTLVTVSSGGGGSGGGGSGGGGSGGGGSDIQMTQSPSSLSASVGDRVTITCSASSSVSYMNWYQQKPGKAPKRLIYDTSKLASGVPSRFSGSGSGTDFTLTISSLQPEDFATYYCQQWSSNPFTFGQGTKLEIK
light: B1 light
notes: anti-CD3 scFv Ab9 (OKT3-based); ROR1 arm Ab1; valency 2/2

EC50, LDH release, Mino (human ROR1 on cells [1]): 0.97 ng/mL and 4.9 pM | EC50, LDH release, ROR1-transfected MEC (human ROR1 on cells [1]): 1.3 ng/mL and 6.5 pM | Max. LDH Release, Mino (human ROR1 on cells [1]): 50% | Max. LDH Release, ROR1-transfected MEC (human ROR1 on cells [1]): 55% | Kd [2]: 0.05 nM | Kd [3]: 0.118 nM | binding result [4]: binds | EC50 (read off the curve) (human ROR1 on cells [5]): ~5 ng/mL
B3: Bispecific construct 7 (bispecific antibody, human IgG1, kappa)
heavy: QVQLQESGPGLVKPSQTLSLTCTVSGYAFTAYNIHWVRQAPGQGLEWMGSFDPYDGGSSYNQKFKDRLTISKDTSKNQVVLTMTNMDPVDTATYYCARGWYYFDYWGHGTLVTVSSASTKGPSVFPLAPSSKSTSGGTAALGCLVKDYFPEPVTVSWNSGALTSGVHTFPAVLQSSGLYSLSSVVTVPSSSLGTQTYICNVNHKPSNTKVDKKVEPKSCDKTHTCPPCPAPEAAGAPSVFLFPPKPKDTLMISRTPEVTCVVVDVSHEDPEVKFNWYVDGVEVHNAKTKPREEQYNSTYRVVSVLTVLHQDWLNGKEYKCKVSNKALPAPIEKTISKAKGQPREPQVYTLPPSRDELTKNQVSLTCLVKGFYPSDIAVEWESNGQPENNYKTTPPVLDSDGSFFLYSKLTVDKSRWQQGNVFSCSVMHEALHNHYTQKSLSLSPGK
light: DIVMTQTPLSLPVTPGEPASISCRASKSISKYLAWYQQKPGQAPRLLIYSGSTLQSGIPPRFSGSGYGTDFTLTINNIESEDAAYYFCQQHDESPYTFGEGTKVEIKRTVAAPSVFIFPPSDEQLKSGTASVVCLLNNFYPREAKVQWKVDNALQSGNSQESVTEQDSKDSTYSLSSTLTLSKADYEKHKVYACEVTHQGLSSPVTKSFNRGECGGGGSGGGGSQVQLVQSGGGVVQPGRSLRLSCKASGYTFTRYTMHWVRQAPGKGLEWIGYINPSRGYTNYNQKVKDRFTISRDNSKNTLYLQMDSLRAEDTAVYYCARYYDDHYSLDYWGQGTTVTVSSGGGGSGGGGSGGGGSGGGGSDIQMTQSPSSLSASVGDRVTITCSASSSVSYMNWYQQKPGKAPKRWIYDTSKLASGVPSRFSGSGSGTDFTFTISSLQPEDIATYYCQQWSSNPFTFGQGTKLEIK
notes: ROR1 arm Ab1; valency 2/2

EC50 (read off the curve) [8]: ~6 nM
B4: parental Ab1 Fab (WT) (Fab, V domains shown)
VH: QVQLQESGPGLVKPSQTLSLTCTVSGYAFTAYNIHWVRQAPGQGLEWMGSFDPYDGGSSYNQKFKDRLTISKDTSKNQVVLTMTNMDPVDTATYYCARGWYYFDYWGHGTLVTVSS
VL: DIVMTQTPLSLPVTPGEPASISCRASKSISKYLAWYQQKPGQAPRLLIYSGSTLQSGIPPRFSGSGYGTDFTLTINNIESEDAAYYFCQQHDESPYTFGEGTKVEIKR
notes: Tested as Fab; also called parental Fab; parental antibody

binding result [7]: binds | EC50, LDH release, A549 (human ROR1 on cells [1]): 3.39 ng/mL and 17.1 pM | EC50, LDH release, A4573 (human ROR1 on cells [1]): 1.2 ng/mL and 6.1 pM | EC50, LDH release, JeKo-1 (human ROR1 on cells [1]): 1.62 ng/mL and 8.1 pM | EC50, LDH release, Mino (human ROR1 on cells [1]): 0.95 ng/mL and 4.8 pM | EC50, LDH release, Saos-2 (human ROR1 on cells [1]): 2.92 ng/mL and 14.7 pM | Max. LDH Release, Mino (human ROR1 on cells [1]): 53% | Kd [2]: 0.098 nM | Kd [3]: 0.151 nM
B5: Bispecific construct 8 (bispecific antibody, human IgG1, kappa)
heavy: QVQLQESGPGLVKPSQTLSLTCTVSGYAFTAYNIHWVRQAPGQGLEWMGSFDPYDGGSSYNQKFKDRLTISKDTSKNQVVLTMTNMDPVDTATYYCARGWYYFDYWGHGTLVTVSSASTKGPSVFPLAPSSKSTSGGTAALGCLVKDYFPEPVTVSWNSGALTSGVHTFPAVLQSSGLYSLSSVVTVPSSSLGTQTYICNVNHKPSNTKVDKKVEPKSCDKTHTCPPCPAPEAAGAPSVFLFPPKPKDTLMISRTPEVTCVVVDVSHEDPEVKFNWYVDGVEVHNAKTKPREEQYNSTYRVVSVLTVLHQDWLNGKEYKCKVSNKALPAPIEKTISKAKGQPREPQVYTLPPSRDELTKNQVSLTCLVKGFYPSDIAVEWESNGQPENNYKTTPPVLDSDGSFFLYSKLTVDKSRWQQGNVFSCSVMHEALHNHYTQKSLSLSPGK
light: DIVMTQTPLSLPVTPGEPASISCRASKSISKYLAWYQQKPGQAPRLLIYSGSTLQSGIPPRFSGSGYGTDFTLTINNIESEDAAYYFCQQHDESPYTFGEGTKVEIKRTVAAPSVFIFPPSDEQLKSGTASVVCLLNNFYPREAKVQWKVDNALQSGNSQESVTEQDSKDSTYSLSSTLTLSKADYEKHKVYACEVTHQGLSSPVTKSFNRGECGGGGSGGGGSQVQLVQSGAEVKKPGASVKVSCKASGYTFTRYTMHWVRQAPGQGLEWMGYINPSRGYTNYNQKFKDRVTLTTDKSSSTAYMELSSLRSEDTAVYYCARYYDDHYSLDYWGQGTLVTVSSGGGGSGGGGSGGGGSGGGGSDIQMTQSPSSLSASVGDRVTITCSASSSVSYMNWYQQKPGKAPKRLIYDTSKLASGVPSRFSGSGSGTDFTLTISSLQPEDFATYYCQQWSSNPFTFGQGTKLEIK
notes: as for B2
